Results reported in paper PMC10874388, “Cyclic peptides discriminate BCL-2 and its clinical mutants from BCL-XL by engaging a single-residue discrepancy” (Nature Communications, 2024).
Starred links: 1 amine or outer side, 2 acyl side, 3 side chain; linkers in the order of their positions; H or OH if unused. Positions of bridges follow the written chain, without caps; N, C: chain ends. Residues, ends and D or L forms follow the SMILES beside them. Primed or numbered codes have the meaning given here. No end group written: not given here. *: point of attachment. X1 = O=C(C[*:2])NCCNC(=O)c1ccc(C2=N[C@H](C(=O)[*:1])CS2)cc1; FITC = O=C1OC2(c3ccc(O)cc3Oc3cc(O)ccc32)c2ccc(NC(=S)*)cc21; cADT = 2-aryl-4,5-dihydrothiazole (ADT) linker; c‑ADT″ = 2-aryl-4,5-dihydrothiazole linker; FITC′ = fluorescein isothiocyanate; ADT (ClAc-3) = not defined here

B5: chimeric human BCL-2 (residues 1-50 and 92-207, residues 35-50 replaced with residues 33-48 of BCL-XL) (domain or fragment, UniProt P10415 1-34, looked up)
chain: MAHAGRTGYDNREIVMKYIHYKLSQRGYEWDAGDNRTEAPEGTESEMETPVVHLTLRQAGDDFSRRYRRDFAEMSSQLHLTPFTARGRFATVVEELFRDGVNWGRIVAFFEFGGVMCVESVNREMSPLVDNIALWMTEYLNRHLHTWIQDNGGWDAFVELYGPSMR
modifications: biotin (biotinylated for SPR; site not stated)
notes: BCL-2, human, residues 1-34 of the chimera (internal loop 51-91 removed; residues 35-50 replaced with residues 33-48 of BCL-XL); BCL-XL, human, residues 33-48, in place of BCL-2 residues 35-50; BCL-2, human, residues 92-207; Biotinylated for SPR; used as such for crystals and fluorescence polarisation; also called BCL-2 WT; source: E. coli BL21 (DE3), purified (Ni-NTA, Superdex 75, RESOURCE Q, …)

Assays:
Jurkat cells = format: cell-based
Description: Supplementary Figure 10 Functional mechanism of CPs. a. IC50 values of venetoclax against A549, MGC-803 and PANC-1 cells, measured after 48 h treatment by a CellTiter-Glo assay and calculated using Prism 7.0 by a nonlinear-fit method. Data are presented as mean ± s.d.; n= 6 biological replicates. b. Western blot detecting the protein expression levels of BCL-2 and BCL-XL in A549, MGC-803, Daudi and Jurkat cells. c-d. Western blot detecting the protein expression levels of BCL-2 and BCL-XL in El4 cells (c) and RS4:11 cells (d). e. Western blot verifying the protein expression levels of exogenous BCL-2 in normal A549 cells (control) and those stably overexpressing BCL-2 WT or G101V mutant. f. qPCR results testing the overexpression of BCL-2 WT or G101V mutant in A549 stable cells. Data are presented as mean ± s.d.; n= 6 biological replicates; one-way ANOVA with Dunnett’s multiple comparisons test. g. Cell viability assay of Jurkat cells after 48 h treatment with DMSO, cp1-FITC, cp6-FITC, respectively. P1 represents the percentage of active cells. h. FITC signal tests after 48 h treatment with DMSO, cp1-FITC, cp6-FITC, respectively. P4 represents cells with the FITC signal. i-k. Structures of cp1-TAT, cp2-TAT and cp3-TAT. […]

[1] = biological target: T1, human BCL-XL (residues 1-210, with 27-81 and 210-233 removed) (human, UniProt Q07817-1 1-210, 27-81 removed, biotinylated for the SPR assays (sites not given)); assay: fluorescence polarisation; competition: cp2-F/BCL-2 complexes (20/400 nM) or cp3-F/BCL-XL complexes (20/600 nM) treated with unlabelled peptides from 1.0 nM to 30.0 uM; 1x PBS pH 7.4, room temperature, 10 min; Ki calculated from EC50, one-site competitive model; settings: both partners purified
T1 construct: BCL-XL, human, residues 1-210 with the loop 27-81 removed; source: E. coli BL21 (DE3), purified (Ni-NTA, Superdex 75, RESOURCE Q, Superdex 200)

[2] = biological target: T2, chimeric human BCL-2 (residues 1-50 and 92-207, residues 35-50 replaced with residues 33-48 of BCL-XL) (human, UniProt P10415 1-34; Q07817-1 33-48; P10415 92-207, biotinylated for the SPR assays (sites not given)); assay: as above; settings: both partners purified
T2 construct: BCL-2, human, residues 1-34 (residues 35-50 are replaced, see next part); BCL-XL, human, residues 33-48, replacing residues 35-50 of BCL-2; BCL-2, human, residues 92-207 (internal loop 51-91 removed); also called BCL-2 WT; source: E. coli BL21 (DE3), purified (Ni-NTA, Superdex 75, RESOURCE Q, Superdex 200)
T2 chain (looked up): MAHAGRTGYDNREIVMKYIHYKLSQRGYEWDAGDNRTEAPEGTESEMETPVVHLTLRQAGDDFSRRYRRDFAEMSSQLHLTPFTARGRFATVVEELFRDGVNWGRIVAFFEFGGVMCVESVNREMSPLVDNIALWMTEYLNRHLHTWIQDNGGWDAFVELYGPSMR

BCL-2-D111A = biological target: T3, BCL-2-D111A (human, UniProt P10415 1-34; Q07817 33-48; P10415 92-207, D111A, biotin (biotinylated for SPR; site not stated)); assay: SPR; Biacore T200; biotinylated proteins immobilised on a CAP sensor chip; peptides flowed in multiple cycles (25-12800 nM, depending on the peptides) at 30 uL/min; 10 mM PBS, 50 uM EDTA, 0.05% Tween-20, 25 °C; affinity fitting, 1:1 binding model; settings: both partners purified
T3 construct: BCL-2, human, residues 1-34 of the chimera, as m6; BCL-XL, human, residues 33-48, in place of BCL-2 residues 35-50; BCL-2, human, residues 92-207; Chimera m6 with the point mutation D111A made by mutagenic PCR; also called BCL-2 D111A mutant; source: E. coli BL21 (DE3), purified (Ni-NTA, Superdex 75, RESOURCE Q, Superdex 200)

[3] = biological target: T4, human BCL-XL (residues 1-210, with 27-81 and 210-233 removed) (human, UniProt Q07817-1 1-209, 27-81 removed, biotin (biotinylated for SPR; site not stated)); assay: as above; settings: both partners purified
T4 construct: BCL-XL, human; printed as residues 1-210, with 27-81 and 210-233 removed (so the last residue is 209 or 210); source: E. coli BL21 (DE3), purified (Ni-NTA, Superdex 75, RESOURCE Q, Superdex 200)

[4] = biological target: B5; assay: as above; settings: both partners purified
BCL-2-D103Y = biological target: T5, BCL-2-D103Y (human, UniProt P10415 1-34; Q07817 33-48; P10415 92-207, D103Y, biotin (biotinylated for SPR; site not stated)); assay: as above; settings: both partners purified
T5 construct: BCL-2, human, residues 1-34 of the chimera, as m6; BCL-XL, human, residues 33-48, in place of BCL-2 residues 35-50; BCL-2, human, residues 92-207; Chimera m6 with the clinical mutation D103Y; source: E. coli BL21 (DE3), purified (Ni-NTA, Superdex 75, RESOURCE Q, Superdex 200)

BCL-2-G101V = biological target: T6, BCL-2-G101V (human, UniProt P10415 1-34; Q07817 33-48; P10415 92-207, G101V, biotin (biotinylated for SPR; site not stated)); assay: as above; settings: both partners purified
T6 construct: BCL-2, human, residues 1-34 of the chimera, as m6; BCL-XL, human, residues 33-48, in place of BCL-2 residues 35-50; BCL-2, human, residues 92-207; Chimera m6 with the venetoclax-resistant clinical mutation G101V; also called BCL-2 G101V mutant; source: E. coli BL21 (DE3), purified (Ni-NTA, Superdex 75, RESOURCE Q, Superdex 200)

BCL-w (residues 6-152) = biological target: T7, BCL-w (residues 6-152) (human, UniProt Q92843 6-152, biotin (biotinylated for SPR; site not stated)); assay: as above; settings: both partners purified
T7 construct: source: E. coli BL21 (DE3), purified (Ni-NTA, Superdex 75, RESOURCE Q, Superdex 200)
T7 sequence (looked up): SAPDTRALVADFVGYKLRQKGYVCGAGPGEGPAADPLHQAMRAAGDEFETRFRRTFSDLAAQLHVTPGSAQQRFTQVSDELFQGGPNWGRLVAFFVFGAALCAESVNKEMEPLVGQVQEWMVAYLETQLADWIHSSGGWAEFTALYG

BCL-2-F104L = biological target: T8, BCL-2-F104L (human, UniProt P10415 1-34; Q07817 33-48; P10415 92-207, F104L, biotin (biotinylated for SPR; site not stated)); assay: as above; settings: both partners purified
T8 construct: BCL-2, human, residues 1-34 of the chimera, as m6; BCL-XL, human, residues 33-48, in place of BCL-2 residues 35-50; BCL-2, human, residues 92-207; Chimera m6 with F104L, a drug-resistant mutation found in a mouse model (residue number of the human protein); also called BCL-2 F104L mutant; source: E. coli BL21 (DE3), purified (Ni-NTA, Superdex 75, RESOURCE Q, Superdex 200)

cp2-F = biological target: T9, cp2-F (linker 1-11 via ADT (ClAc-3) (inferred); reading uncertain; also: modified by ClAc-3, printed as CPIRYEWDEFCG{K(FITC)}); assay: fluorescence polarisation; direct binding: 20 nM FITC-labelled peptide, protein 60-1000 nM, 1x PBS pH 7.4, room temperature, 10 min; settings: both partners purified
T9 construct: also called cp2-FITC; source: synthetic peptide
T9 peptide: CPIRYEWDEFCGK(FITC′)

T6 sequence (P10415 other isoform, or with tags, fused parts or gaps G101V | G101V | G101V G101V): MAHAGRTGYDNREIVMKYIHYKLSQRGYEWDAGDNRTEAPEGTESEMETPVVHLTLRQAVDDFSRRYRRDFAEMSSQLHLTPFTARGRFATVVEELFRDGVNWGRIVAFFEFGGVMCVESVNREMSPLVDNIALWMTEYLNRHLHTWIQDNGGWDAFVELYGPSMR
T1 sequence (Q07817 other isoform, or with tags, fused parts or gaps 27-81 removed | 27-81 removed): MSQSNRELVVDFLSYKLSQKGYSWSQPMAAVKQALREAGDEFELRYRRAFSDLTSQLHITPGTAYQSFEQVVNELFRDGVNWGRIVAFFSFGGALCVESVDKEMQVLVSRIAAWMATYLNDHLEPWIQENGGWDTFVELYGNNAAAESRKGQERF
T3 sequence (P10415 other isoform, or with tags, fused parts or gaps D111A | D111A | D111A D111A): as the sequence (P10415 other isoform, or with tags, fused parts or gaps G101V | G101V | G101V G101V) above, with V60G, D70A counted along it
T4 sequence (Q07817 other isoform, or with tags, fused parts or gaps 27-81 removed | 27-81 removed): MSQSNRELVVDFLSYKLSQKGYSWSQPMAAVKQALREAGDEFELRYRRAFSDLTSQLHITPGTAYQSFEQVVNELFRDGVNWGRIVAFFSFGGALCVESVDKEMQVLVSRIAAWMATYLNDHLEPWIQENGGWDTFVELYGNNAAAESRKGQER
T5 sequence (P10415 other isoform, or with tags, fused parts or gaps D103Y | D103Y | D103Y D103Y): as the sequence (P10415 other isoform, or with tags, fused parts or gaps G101V | G101V | G101V G101V) above, with V60G, D62Y counted along it

## C[C@@H]1NC(=O)[C@@H]2CCCN2C(=O)[C@@H]2CSC(=N2)c2ccc(cc2)C(=O)NCCNC(=O)CSC[C@@H](C(=O)NCC(=O)N[C@@H](CCCCNC(=S)Nc2ccc3c(c2)C(=O)OC32c3ccc(O)cc3Oc3cc(O)ccc32)C(N)=O)NC(=O)[C@H](CCC(=O)O)NC(=O)[C@H](Cc2ccc(O)cc2)NC(=O)[C@H](CC(=O)O)NC(=O)[C@H](Cc2c[nH]c3ccccc23)NC(=O)CNC(=O)[C@H](Cc2ccc(O)cc2)NC(=O)[C@H](CCCNC(=N)N)NC1=O [cp1-FITC] (PARYGWDYECGK(FITC)-NH2; linker N-10 via X1)
Jurkat cells
  Penetration efficiency (FITC signal in cells): relatively low penetration efficiency

## cp6-FITC: FITC-labeled cp6; CPARYFWDYKCGK(FITC) (CPARYFWDYKCGK(FITC′); not fully specified (bridges); printed as CPARYFWDYKCGK(FITC); cysteine pairing not given here)
Jurkat cells
  Penetration efficiency (FITC signal in cells): relatively low penetration efficiency

B1: cp2 (peptide)
peptide: CPIRYEWDEFC-NH2
modifications: linker 1-11 via c‑ADT″
notes: cyclic peptide from the CPXRYXWDXXC phage library screened against BCL-2; source: synthetic peptide
[1]
  Ki: 682 nM
[2]
  Ki: 22.5 nM

B2: cp3 (peptide)
peptide: CPIRYPWDVEC
modifications: linker 1-11 via cADT (inferred)
notes: cyclic peptide from the second phage library CPXRYXWDXXC screened against BCL-XL; they agree with P6, V9 and E10 named in the text
BCL-2-D111A
  Kd: 90 nM
[3]
  Kd: 90 nM
[4]
  Kd: 240 nM
BCL-2-D103Y
  Kd: 340 nM
BCL-2-G101V
  Kd: 660 nM
BCL-w (residues 6-152)
  Kd: 220 nM
BCL-2-F104L
  Kd: 710 nM

B3: cp3 (peptide)
peptide: CPIRYPWDVEC-NH2
modifications: linker 1-11 via c‑ADT″
notes: cyclic peptide from the CPXRYXWDXXC phage library screened against BCL-XL; source: synthetic peptide
[1]
  Ki: 333 nM
[2]
  Ki: 152 nM

B4: cp2 (peptide)
peptide: CPIRYEWDEFC
modifications: linker 1-11 via cADT (inferred)
notes: cyclic peptide from the second phage library CPXRYXWDXXC screened against BCL-2; they agree with I3, E6, E9 and F10 named in the text
BCL-2-D111A
  Kd: 120 nM
[3]
  Kd: 730 nM
[4]
  Kd: 200 nM
BCL-2-D103Y
  Kd: 210 nM
BCL-2-G101V
  Kd: 300 nM
BCL-w (residues 6-152)
  Kd: 1450 nM
BCL-2-F104L
  Kd: 260 nM

## B5
cp2-F
  binding result: binds
